From article PMC6868158 come the findings set out here.

For orientation: Kd means the equilibrium constant for the complex coming apart.

Data set [1] concerns tTALE-eGFP (truncated TALE, 7-mer TGTCTGT repeat domain, fused to eGFP) (artificial construct (from TALEN plasmid RHD_Exon4_TALEN_L)). Nature of the data set: FRET. The note with it: FRET: TE pH 8.0, 100 nM dsDNA, 10-100 nM tTALE-eGFP for Kd; NaCl series 0-200 mM at 30 nM protein; excitation 488 nm, emission 631 nm; temperature not stated.
For data set [2] the test system is unchanged. Nature of the data set: single-molecule fluorescence (surface-immobilized DNA in flow cell). Particulars: FRET: TE pH 8.0, 100 nM dsDNA, 10-100 nM tTALE-eGFP for Kd; NaCl series 0-200 mM at 30 nM protein; excitation 488 nm, emission 631 nm; temperature not stated.

In data set [1], TGTCTGTATG (double strand) [target DNA] returned a Kd of 26.7 nM. In data set [2], lambda DNA had a K half of 22 nM.
